From PMC6735613

Molecular target: recombinant human MMP-9 catalytic domain (residues 112-445) (human) (UniProt P14780)
Chain of UniProt P14780 (P14780 112-445): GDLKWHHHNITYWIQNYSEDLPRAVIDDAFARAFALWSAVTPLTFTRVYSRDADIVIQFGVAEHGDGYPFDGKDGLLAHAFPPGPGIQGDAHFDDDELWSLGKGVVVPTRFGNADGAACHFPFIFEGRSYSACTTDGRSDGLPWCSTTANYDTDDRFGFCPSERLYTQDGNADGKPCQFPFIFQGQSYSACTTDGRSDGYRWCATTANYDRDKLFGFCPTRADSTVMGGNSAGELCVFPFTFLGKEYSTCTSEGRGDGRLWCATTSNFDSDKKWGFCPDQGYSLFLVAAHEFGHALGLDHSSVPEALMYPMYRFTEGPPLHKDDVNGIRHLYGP

B1: VCAN p.1335-1347 FRET substrate (5-FAM-…-QXL) (peptide)
peptide: GRMSDLSMIGHPI
modifications: 5-FAM on the N-terminus, QXL quencher on the C-terminus (5-FAM-GRMSDLSMIGHPI-QXL)
Kcat/Km of hydrolysis of the FRET-tagged peptide by the MMP-9 catalytic domain: 8650 M⁻¹ s⁻¹
